Experimental data: publication PMC2908215

Molecular target: T1, MLH1 p.Arg659Leu (human), P40692
T1 chain: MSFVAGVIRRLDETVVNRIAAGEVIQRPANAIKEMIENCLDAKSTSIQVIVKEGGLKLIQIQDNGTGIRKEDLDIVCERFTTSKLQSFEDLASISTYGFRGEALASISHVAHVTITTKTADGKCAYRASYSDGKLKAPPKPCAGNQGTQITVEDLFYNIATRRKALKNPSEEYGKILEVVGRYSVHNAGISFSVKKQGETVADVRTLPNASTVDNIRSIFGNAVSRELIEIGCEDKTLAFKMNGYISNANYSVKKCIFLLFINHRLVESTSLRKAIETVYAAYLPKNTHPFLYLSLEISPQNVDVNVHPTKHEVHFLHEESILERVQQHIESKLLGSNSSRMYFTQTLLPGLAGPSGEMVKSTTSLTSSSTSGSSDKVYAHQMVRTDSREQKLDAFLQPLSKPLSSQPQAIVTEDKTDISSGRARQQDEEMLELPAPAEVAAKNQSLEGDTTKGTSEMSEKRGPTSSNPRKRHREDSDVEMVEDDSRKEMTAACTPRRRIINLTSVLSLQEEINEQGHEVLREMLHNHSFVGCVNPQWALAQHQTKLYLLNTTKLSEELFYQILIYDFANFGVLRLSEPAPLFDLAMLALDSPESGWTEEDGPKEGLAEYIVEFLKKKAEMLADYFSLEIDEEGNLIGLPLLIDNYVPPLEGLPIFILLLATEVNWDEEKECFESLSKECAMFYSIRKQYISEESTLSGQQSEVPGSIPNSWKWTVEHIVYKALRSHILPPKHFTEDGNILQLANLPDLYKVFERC
Assay: co-IP
Conditions: remark: other sources report otherwise

co-precipitated PMS2 in relation to wild-type (% of wild-type): 77
B1: PMS2, P54278 1-862 (natural protein)
chain: MERAESSSTEPAKAIKPIDRKSVHQICSGQVVLSLSTAVKELVENSLDAGATNIDLKLKDYGVDLIEVSDNGCGVEEENFEGLTLKHHTSKIQEFADLTQVETFGFRGEALSSLCALSDVTISTCHASAKVGTRLMFDHNGKIIQKTPYPRPRGTTVSVQQLFSTLPVRHKEFQRNIKKEYAKMVQVLHAYCIISAGIRVSCTNQLGQGKRQPVVCTGGSPSIKENIGSVFGQKQLQSLIPFVQLPPSDSVCEEYGLSCSDALHNLFYISGFISQCTHGVGRSSTDRQFFFINRRPCDPAKVCRLVNEVYHMYNRHQYPFVVLNISVDSECVDINVTPDKRQILLQEEKLLLAVLKTSLIGMFDSDVNKLNVSQQPLLDVEGNLIKMHAADLEKPMVEKQDQSPSLRTGEEKKDVSISRLREAFSLRHTTENKPHSPKTPEPRRSPLGQKRGMLSSSTSGAISDKGVLRPQKEAVSSSHGPSDPTDRAEVEKDSGHGSTSVDSEGFSIPDTGSHCSSEYAASSPGDRGSQEHVDSQEKAPKTDDSFSDVDCHSNQEDTGCKFRVLPQPTNLATPNTKRFKKEEILSSSDICQKLVNTQDMSASQVDVAVKINKKVVPLDFSMSSLAKRIKQLHHEAQQSEGEQNYRKFRAKICPGENQAAEDELRKEISKTMFAEMEIIGQFNLGFIITKLNEDIFIVDQHATDEKYNFEMLQQHTVLQGQRLIAPQTLNLTAVNEAVLIENLEIFRKNGFDFVIDENAPVTERAKLISLPTSKNWTFGPQDVDELIFMLSDSPGVMCRPSRVKQMFASRACRKSVMIGTALNTSEMKKLITHMGEMDHPWNCPHGRPTMRHIANLGVISQN
